Measurements reported in US20240325445A1 (Regeneron, published 2024).

Key:
[1] = biological target: human B-cell maturation antigen (BCMA) on cells (human) (UniProt Q02223); assay: cell-based or functional assay
[2] = biological target: T1, BCMA extracellular domain fused to an hIgG1-Fc (human, UniProt Q02223 1-54); assay: flow cytometry; 10 ug/ml BCMA ecto-hFc on Jurkat/NFATLuc cells carrying the CAR, Alexa 647 secondary antibody
T1 construct: also called BCMA ecto-hFc; BCMA-hFc; not shown: human IgG1 Fc
T1 sequence: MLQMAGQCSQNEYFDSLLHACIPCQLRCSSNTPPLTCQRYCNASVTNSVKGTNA
Protocol: Relative cell surface expression of the BCMA CAR constructs in Jurkat/NFATLuc cells was accessed by flow cytometry. […] Cells were then washed and fixed using a 50% solution of BD Cytofix (BD, Cat #554655) diluted in staining buffer. Samples were run on the Intellicyt iQue flow cytometer and analyzed by FlowJo 10.2 to calculate the mean fluorescent intensity (MFI). The signal to noise ratio (S:N) is determined by taking the ratio of the BCMA-hFc or Fc isotype control MFI to the secondary antibody alone MFI.

[3] = biological target: T2, human B-cell maturation antigen (BCMA) on cells (human, UniProt Q02223 1-184); assay: cell-based or functional assay
T2 sequence: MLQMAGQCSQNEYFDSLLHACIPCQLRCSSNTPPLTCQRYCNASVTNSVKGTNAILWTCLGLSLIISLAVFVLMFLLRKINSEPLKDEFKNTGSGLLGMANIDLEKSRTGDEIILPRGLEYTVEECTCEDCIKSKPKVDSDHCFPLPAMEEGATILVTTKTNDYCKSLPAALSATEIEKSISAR

[4] = biological target: irrelevant protein fused to hIgG1-Fc (human); assay: flow cytometry; 10 ug/ml Fc isotype control on Jurkat/NFATLuc cells carrying the CAR, Alexa 647 secondary antibody
[5] = biological target: T2, human B-cell maturation antigen (BCMA) …; assay: cell-based or functional assay; remark: listed apart in the source

Molecule: control chimeric antigen receptor with an irrelevant scFv (17363)
- percent cytotoxicity (calcein release), H929 target cells, T effector:target ratio 50, mean [1]: -0.8%
- percent cytotoxicity (calcein release), MOLP8 target cells, T effector:target ratio 50, mean [1]: -3.1%

B1: BCMA 16732 VL-VH chimeric antigen receptor (scFv of mAb16732) (scFv)
chain: DIQMTQSPSSLSASVGDRVTITCRTSQSIGNYLNWFQQKPGKAPKLLIYTASSLQNGVPSRFTGSGSGTDFTLTISSLQPEDFVIYYCQQSFSTPYTFGQGTKLEIKGGGGSGGGGSGGGGSEVQLVESGGGLVQPGRSLRLSCAASGFTFDDYAMHWVRQAPGKGLEWVSGISWNSGNMGYADSVKGRFTISRDNAKNSLFLQMHSLRAEDTAFYYCAKVRLTAFDFWGQGTLVTVSSTTTPAPRPPTPAPTIASQPLSLRPEACRPAAGGAVHTRGLDFACDIYIWAPLAGTCGVLLLSLVITLYCKRGRKKLLYIFKQPFMRPVQTTQEEDGCSCRFPEEEEGGCELRVKFSRSADAPAYKQGQNQLYNELNLGRREEYDVLDKRRGRDPEMGGKPRRKNPQEGLYNELQKDKMAEAYSEIGMKGERRRGKGHDGLYQGLSTATKDTYDALHMQALPPR
notes: 3C7 cells; a linker before the hinge or a signal peptide may be present; also called 16732 VL-VH CART; 16732 CAR
- S:N (BCMA-hFc) [2]: 13.1 ratio of MFI to secondary antibody alone
- CAR-T Max Activity (NFAT-luciferase, S:N), APC Daudi [3]: 4.9 S:N (highest RLU / lowest RLU)
- CAR-T Max Activity (NFAT-luciferase, S:N), APC RAJI [3]: 16.8 S:N (highest RLU / lowest RLU)
- CAR-T Max Activity (NFAT-luciferase, S:N), APC RPMI8226 [3]: 5.2 S:N (highest RLU / lowest RLU)
- S:N (Isotype-hFc) (ratio of MFI to secondary antibody alone) [4]: 1

B2: BCMA 16747 VL-VH chimeric antigen receptor (scFv of mAb16747) (scFv)
chain: DIQMTQSPSSVSASVGDRVTITCRASQGINNWLVWYQQKPGKAPKLLIYAATSLQSGVPSRFSGSGSGTDFTLTISSLQPEDFATYYCQQANSFPPTFGQGTKLEIKGGGGSGGGGSGGGGSQVQLVESGGGLVKPGGSLRLSCAASGFTFSDYYISWIRQAPGKGLEWVSYISSSGSSIKYADSVKGRFTISRDNAKNSLYLQMNSLRAEDTAVYYCAREGGNYGMDVWGQGTTVTVSSTTTPAPRPPTPAPTIASQPLSLRPEACRPAAGGAVHTRGLDFACDIYIWAPLAGTCGVLLLSLVITLYCKRGRKKLLYIFKQPFMRPVQTTQEEDGCSCRFPEEEEGGCELRVKFSRSADAPAYKQGQNQLYNELNLGRREEYDVLDKRRGRDPEMGGKPRRKNPQEGLYNELQKDKMAEAYSEIGMKGERRRGKGHDGLYQGLSTATKDTYDALHMQALPPR
notes: a linker before the hinge or a signal peptide may be present
- S:N (BCMA-hFc) [2]: 209 ratio of MFI to secondary antibody alone
- CAR-T Max Activity (NFAT-luciferase, S:N), APC Daudi [3]: 14 S:N (highest RLU / lowest RLU)
- CAR-T Max Activity (NFAT-luciferase, S:N), APC RAJI [3]: 38.9 S:N (highest RLU / lowest RLU)
- CAR-T Max Activity (NFAT-luciferase, S:N), APC RPMI8226 [3]: 12.5 S:N (highest RLU / lowest RLU)
- S:N (Isotype-hFc) (ratio of MFI to secondary antibody alone) [4]: 1.3
- percent cytotoxicity (calcein release), H929 target cells, T effector:target ratio 0.78, mean [5]: 0.9%
- percent cytotoxicity (calcein release), H929 target cells, T effector:target ratio 1.56, mean [5]: 1.8%
- percent cytotoxicity (calcein release), H929 target cells, T effector:target ratio 3.13, mean [5]: 2.9%
- percent cytotoxicity (calcein release), H929 target cells, T effector:target ratio 6.25, mean [5]: 4.2%
- percent cytotoxicity (calcein release), H929 target cells, T effector:target ratio 12.5, mean [5]: 9.3%
- percent cytotoxicity (calcein release), H929 target cells, T effector:target ratio 25, mean [5]: 19.4%
- percent cytotoxicity (calcein release), H929 target cells, T effector:target ratio 50, mean [5]: 29.3%
- percent cytotoxicity (calcein release), MOLP8 target cells, T effector:target ratio 0.78, mean [5]: -2.9%
- percent cytotoxicity (calcein release), MOLP8 target cells, T effector:target ratio 1.56, mean [5]: 0.2%
- percent cytotoxicity (calcein release), MOLP8 target cells, T effector:target ratio 3.13, mean [5]: 2.2%
- percent cytotoxicity (calcein release), MOLP8 target cells, T effector:target ratio 6.25, mean [5]: 5.8%
- percent cytotoxicity (calcein release), MOLP8 target cells, T effector:target ratio 12.5, mean [5]: 8.2%
- percent cytotoxicity (calcein release), MOLP8 target cells, T effector:target ratio 25, mean [5]: 10.9%
- percent cytotoxicity (calcein release), MOLP8 target cells, T effector:target ratio 50, mean [5]: 14%

B3: BCMA 16711 VL-VH chimeric antigen receptor (scFv of mAb16711) (scFv)
chain: DIQMTQSPSSVSASVGDRVTITCRASRGISSWLAWYQQKPGKAPKLLIHAASSLQSGVPSRFSGSGSGTDFTLTISSLQPEDFATYYCQQAISFPFTFGPGTKVDIKGGGGSGGGGSGGGGSQVQLVESGGGVVQPGRSLRLSCAASGFTFSTYGIHWVRQAPGKGLEWVAVILHDGSSNYYAESVKGRFIISRDNSKNTLYLQMNSLRAEDTALYYCTKRYSEAAGPNWFDPWGQGTLVTVSSTTTPAPRPPTPAPTIASQPLSLRPEACRPAAGGAVHTRGLDFACDIYIWAPLAGTCGVLLLSLVITLYCKRGRKKLLYIFKQPFMRPVQTTQEEDGCSCRFPEEEEGGCELRVKFSRSADAPAYKQGQNQLYNELNLGRREEYDVLDKRRGRDPEMGGKPRRKNPQEGLYNELQKDKMAEAYSEIGMKGERRRGKGHDGLYQGLSTATKDTYDALHMQALPPR
notes: 3C7 cells; a linker before the hinge or a signal peptide may be present; also called 16711 VL-VH CART; 16711 CAR
- S:N (BCMA-hFc) [2]: 3.7 ratio of MFI to secondary antibody alone
- CAR-T Max Activity (NFAT-luciferase, S:N), APC Daudi [3]: 2.6 S:N (highest RLU / lowest RLU)
- CAR-T Max Activity (NFAT-luciferase, S:N), APC RAJI [3]: 7.9 S:N (highest RLU / lowest RLU)
- CAR-T Max Activity (NFAT-luciferase, S:N), APC RPMI8226 [3]: 1.8 S:N (highest RLU / lowest RLU)
- S:N (Isotype-hFc) (ratio of MFI to secondary antibody alone) [4]: 1.2
